Molecular target: Human placental collagen, type III (Sigma) (human) (UniProt P02461)
Test: cell-based or functional assay

UniProt P02461, sequence (P02461 154-1221): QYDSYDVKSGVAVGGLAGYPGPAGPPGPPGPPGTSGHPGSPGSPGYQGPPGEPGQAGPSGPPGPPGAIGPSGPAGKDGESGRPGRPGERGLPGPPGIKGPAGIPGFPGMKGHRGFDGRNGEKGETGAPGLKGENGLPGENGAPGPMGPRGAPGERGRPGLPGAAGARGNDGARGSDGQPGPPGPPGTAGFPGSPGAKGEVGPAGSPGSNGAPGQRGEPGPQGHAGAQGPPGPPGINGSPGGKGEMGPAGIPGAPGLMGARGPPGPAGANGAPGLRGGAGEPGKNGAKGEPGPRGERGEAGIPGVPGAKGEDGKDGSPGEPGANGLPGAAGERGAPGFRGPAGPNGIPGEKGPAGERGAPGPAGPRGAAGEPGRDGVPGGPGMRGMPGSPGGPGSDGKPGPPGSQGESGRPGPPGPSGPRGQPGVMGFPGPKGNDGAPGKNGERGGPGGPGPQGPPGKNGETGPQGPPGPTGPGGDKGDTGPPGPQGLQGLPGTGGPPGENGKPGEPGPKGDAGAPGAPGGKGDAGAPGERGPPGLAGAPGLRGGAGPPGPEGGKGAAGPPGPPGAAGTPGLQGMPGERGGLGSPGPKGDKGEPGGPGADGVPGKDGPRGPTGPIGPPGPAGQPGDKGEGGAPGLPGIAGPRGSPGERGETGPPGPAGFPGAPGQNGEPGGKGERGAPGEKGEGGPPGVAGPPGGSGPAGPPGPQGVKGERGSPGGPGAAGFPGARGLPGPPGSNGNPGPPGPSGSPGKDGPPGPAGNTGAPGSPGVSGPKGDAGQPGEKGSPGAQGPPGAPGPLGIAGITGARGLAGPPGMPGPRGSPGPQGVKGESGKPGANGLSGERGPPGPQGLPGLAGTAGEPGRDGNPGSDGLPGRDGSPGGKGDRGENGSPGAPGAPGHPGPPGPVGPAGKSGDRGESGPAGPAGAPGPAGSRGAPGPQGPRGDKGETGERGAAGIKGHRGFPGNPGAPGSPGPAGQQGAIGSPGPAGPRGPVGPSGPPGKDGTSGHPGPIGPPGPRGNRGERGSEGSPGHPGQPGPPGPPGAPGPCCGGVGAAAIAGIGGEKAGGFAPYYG

Substance: Saratin (protein isolated from the saliva of the leech Hirudo medicinalis; 103 amino acids)
- platelet binding on collagen type III coated surface pretreated with Saratin, whole human blood under flow (shear rate 1300 s-1): 80%
- reduction in platelet deposition on collagen type III coated coverslips at a shear rate of 1300 s-1: 81%

Source: patent publication US20060094079A1
